Reference: patent US11471462B2, “Compositions and methods for detecting and treating diabetes” (THE BROAD INSTITUTE, INC., priority 2016, dated 2022)

B1: HEATR2 (protein)
chain: AALGVAEAVAAPHPAEGAETAEAVELSRALSRLLPGLEADSKPGRRRALEALRRALEEPGPAADPTAFQGPWARLLLPRLLRCLSDPAEGCRALAVHLLDLGLRRAARPRDALPRLLPALAARLAGPVPARRPPEACEELRLALVQLLGLAVDLCGAALAPHLDDALRALRCSLLDPFAAVRRESCSCAAALAQATPDHFHMQSESLIGPLMQTISHQHWKVRVAAIEATGAVIHFGNGKSVDDVLSHFAQRLFDDVPQVRRAVASVVGGWLLCLRDRYSFFHKLIPLLLSSLNDEVPEVRQLAASLWEDVGLQWQKENEEDLKDKLDFAPPTPPHYPPHERRPVLGCRELVFRNLSKILPALCHDITDWVVGTRVKSAQLLPVLLLHAEDHATQHLEVVLRTLFQACTDEEAAVVQSCTRSAELVGTFVSPEVFLKLILSTLKKTPSASGLLVLASAMRGCPREALQPHLAAIATELAQAHICQASENDLYLERLLLCVQALVSVCHEDCGVASLQLLDVLLTIVALAGATGLRDKAQETMDSLAMVEGVSSCQDLYRKHIGPLLERVTASHLDWTAHSPELLQFSVIVAQSGPALGEALPHVVPTLRACLQPSQDPQMRLKLFSILSTVLLRATDTINSQGQFPSYLETVTKDILAPNLQWHAGRTAAAIRTAAVSCLWALTSSEVLSAEQIRDVQETLMPQVLTTLEEDSKMTRLISCRIINTFLKTSGGMTDPEKLIRIYPELLKRLDDVSNDVRMAAASTLVTWLQCVKGANAKSYYQSSVQYLYRELLVHLDDPERAIQDAILEVLKEGSGLFPDLLVRETEAVIHKHRSATYCEQLLQHVQAVPATQ
B2: STT3A (protein)
chain: MTKFGFLRLSYEKQDTLLKLLILSMAAVLSFSTRLFAVLRFESVIHEFDPYFNYRTTRFLAEEGFYKFHNWFDDRAWYPLGRIIGGTIYPGLMITSAAIYHVLHFFHITIDIRNVCVFLAPLFSSFTTIVTYHLTKELKDAGAGLLAAAMIAVVPGYISRSVAGSYDNEGIAIFCMLLTYYMWIKAVKTGSICWAAKCALAYFYMVSSWGGYVFLINLIPLHVLVLMLTGRFSHRIYVAYCTVYCLGTILSMQISFVGFQPVLSSEHMAAFGVFGLCQIHAFVDYLRSKLNPQQFEVLFRSVISLVGFVLLTVGALLMLTGKISPWTGRFYSLLDPSYAKNNIPIIASVSEHQPTTWSSYYFDLQLLVFMFPVGLYYCFSNLSDARIFIIMYGVTSMYFSAVMVRLMLVLAPVMCILSGIGVSQVLSTYMKNLDISRPDKKSKKQQDSTYPIKNEVASGMILVMAFFLITYTFHSTWVTSEAYSSPSIVLSARGGDGSRIIFDDFREAYYWLRHNTPEDAKVMSWWDYGYQITAMANRTILVDNNTWNNTHISRVGQAMASTEEKAYEIMRELDVSYVLVIFGGLTGYSSDDINKFLWMVRIGGSTDTGKHIKENDYYTPTGEFRVDREGSPVLLNCLMYKMCYYRFGQVYTEAKRPPGFDRVRNAEIGNKDFELDVLEEAYTTEHWLVRIYKVKDLDNRGLSRT
B3: EMC3 (protein)
chain: AGPELLLDSNIRLWVVLPIVIITFFVGMIRHYVSILLQSDKKLTQEQVSDSQVLIRSRVLRENGKYIPKQSFLTRKYYFNNPEDGFFKKTKRKVVPPSPMTDPTMLTDMMKGNVTNVLPMILIGGWINMTFSGFVTTKVPFPLTLRFKPMLQQGIELLTLDASWVSSASWYFLNVFGLRSIYSLILGQDNAADQSRMMQEQMTGAAMAMPADTNKAFKTEWEALELTDHQWALDDVEEELMAKDLHFEGMFKKELQTSIF
B4: DNAJC3 (protein)
chain: GVNADVEKHLELGKKLLAAGQLADALSQFHAAVDGDPDNYIAYYRRATVFLAMGKSKAALPDLTKVIQLKMDFTAARLQRGHLLLKQGKLDEAEDDFKKVLKSNPSENEEKEAQSQLIKSDEMQRLRSQALNAFGSGDYTAAIAFLDKILEVCVWDAELRELRAECFIKEGEPRKAISDLKAASKLKNDNTEAFYKISTLYYQLGDHELSLSEVRECLKLDQDHKRCFAHYKQVKKLNKLIESAEELIRDGRYTDATSKYESVMKTEPSIAEYTVRSKERICHCFSKDEKPVEAIRVCSEVLQMEPDNVNALKDRAEAYLIEEMYDEAIQDYETAQEHNENDQQIREGLEKAQRLLKQSQKRDYYKILGVKRNAKKQEIIKAYRKLALQWHPDNFQNEEEKKKAEKKFIDIAAAKEVLSDPEMRKKFDDGEDPLDAESQQGGGGNPFHRSWNSWQGFNPFSSGGPFRFKFHFN
B5: SLC25A3 (protein)
chain: AVEEYSCEFGSAKYYALCGFGGVLSCGLTHTAVVPLDLVKCRMQVDPQKYKGIFNGFSVTLKEDGVRGLAKGWAPTFLGYSMQGLCKFGFYEVFKVLYSNMLGEENTYLWRTSLYLAASASAEFFADIALAPMEAAKVRIQTQPGYANTLRDAAPKMYKEEGLKAFYKGVAPLWMRQIPYTMMKFACFERTVEALYKFVVPKPRSECSKPEQLVVTFVAGYIAGVFCAIVSHPADSVVSVLNKEKGSSASLVLKRLGFKGVWKGLFARIIMIGTLTALQWFIYDSVKVYFRLPRPPPPEMPESLKKKLGLTQ
B6: TUBA4A (protein)
chain: MRECISVHVGQAGVQMGNACWELYCLEHGIQPDGQMPSDKTIGGGDDSFTTFFCETGAGKHVPRAVFVDLEPTVIDEIRNGPYRQLFHPEQLITGKEDAANNYARGHYTIGKEIIDPVLDRIRKLSDQCTGLQGFLVFHSFGGGTGSGFTSLLMERLSVDYGKKSKLEFSIYPAPQVSTAVVEPYNSILTTHTTLEHSDCAFMVDNEAIYDICRRNLDIERPTYTNLNRLISQIVSSITASLRFDGALNVDLTEFQTNLVPYPRIHFPLATYAPVISAEKAYHEQLSVAEITNACFEPANQMVKCDPRHGKYMACCLLYRGDVVPKDVNAAIAAIKTKRSIQFVDWCPTGFKVGINYQPPTVVPGGDLAKVQRAVCMLSNTTAIAEAWARLDHKFDLMYAKRAFVHWYVGEGMEEGEFSEAREDMAALEKDYEEVGIDSYEDEDEGEE
B7: SEC61A1 (protein)
chain: MTQTARVLVKFLEVIKPFCVILPEIQKPERKIQFKEKVLWTAITLFIFLVCCQIPLFGIMSSDSADPFYWMRVILASNRGTLMELGISPIVTSGLIMQLLAGAKIIEVGDTPKDRALFNGAQKLFGMIITIGQSIVYVMTGMYGDPSEMGAGICLLITIQLFVAGLIVLLLDELLQKGYGLGSGISLFIATNICETIVWKAFSPTTVNTGRGMEFEGAIIALFHLLATRTDKVRALREAFYRQNLPNLMNLIATIFVFAVVIYFQGFRVDLPIKSARYRGQYNTYPIKLFYTSNIPIILQSALVSNLYVISQMLSARFSGNLLVSLLGTWSDTSSGGPARAYPVGGLCYYLSPPESFGSVLEDPVHAVVYIVFMLGSCAFFSKTWIEVSGSSAKDVAKQLKEQQMVMRGHRETSMVHELNRYIPTAAAFGGLCIGALSVLADFLGAIGSGTGILLAVTIIYQYFEIFVKEQSEVGSMGALLF
B8: DHCR7 (protein)
chain: MAAKSQPNIPKAKSLDGVTNDRTASQGQWGRAWEVDWFSLASVIFLLLFAPFIVYYFIMACDQYSCALTGPVVDIVTGHARLSDIWAKTPPITRKAAQLYTLWVTFQVLLYTSLPDFCHKFLPGYVGGIQEGAVTPAGVVNKYQINGLQAWLLTHLLWFANAHLLSWFSPTIIFDNWIPLLWCANILGYAVSTFAMVKGYFFPTSARDCKFTGNFFYNYMMGIEFNPRIGKWFDFKLFFNGRPGIVAWTLINLSFAAKQRELHSHVTNAMVLVNVLQAIYVIDFFWNETWYLKTIDICHDHFGWYLGWGDCVWLPYLYTLQGLYLVYHPVQLSTPHAVGVLLLGLVGYYIFRVANHQKDLFRRTDGRCLIWGRKPKVIECSYTSADGQRHHSKLLVSGFWGVARHFNYVGDLMGSLAYCLACGGGHLLPYFYIIYMAILLTHRCLRDEHRCASKYGRDWERYTAAVPYRLLPGIF

test system: SLC16A11; assay: SLC16A11 protein-protein interaction study (immunoprecipitation, quantitative mass spectrometry); design: species or system human; conditions: putative SLC16A11^REF interaction partners; immunoprecipitation from HEK293T cells vs empty vector control; Blandt-Altman

Molecule | BA log fold change
B1 | 1.03
B2 | 1.27
B3 | 1.65
B4 | 1.22
B5 | 1.65
B6 | 1.02
B7 | 1.84
B8 | 1.69
